3 molecules from doi:10.1101/2021.03.01.433494 (bioRxiv, 2021) can be followed below.

The target of assay [1] is T1, M1 protein on the surface of Streptococcus pyogenes strain SF370 (Streptococcus pyogenes SF370 (emm1), UniProt Q99XV0, strain). Kind of assay: flow cytometry on cells.
For assay [2], the target named is T1, M1 protein on the surface of …. The experiment in a line: far-Western, overlay or dot blot.

B1: Ab49 (human monoclonal anti-M protein IgG) (antibody, V domains shown)
VH: EVQLVESGGGLVQPGGSLRLSCAASGFTVSINYMSWVRQAPGKGLQWVSVIYSGGSTYYADSVKGRFTISRDNSKNTLYLQMNSLRAEDTAMYYCVRDSRFWGIFDYWGQGTLVTVSS
VL: EIVLTQSPATLSLSPGERATLSCRASQSVSSYLAWYQRKPGQAPRLLIYDASNRATGIPARFSGSGSGTDFTLTISSLEPEDFAVYYCQQRSNWPPTFGQGTKVEIK
For the molecule B1, in assay [1], the binding result is listed as “binds”.

B2: Ab49 single Fab (IgdE-cleaved Ab49) (Fab, V domains shown)
VH: EVQLVESGGGLVQPGGSLRLSCAASGFTVSINYMSWVRQAPGKGLQWVSVIYSGGSTYYADSVKGRFTISRDNSKNTLYLQMNSLRAEDTAMYYCVRDSRFWGIFDYWGQGTLVTVSS
VL: EIVLTQSPATLSLSPGERATLSCRASQSVSSYLAWYQRKPGQAPRLLIYDASNRATGIPARFSGSGSGTDFTLTISSLEPEDFAVYYCQQRSNWPPTFGQGTKVEIK
Take B2: the binding result in assay [1] is “binds”.

B3: Ab32 (human monoclonal anti-M protein IgG) (antibody, V domains shown)
VH: EVQLVESGGGLVRPGGSLRLSCVASGFMFNEYYMSWIRQAPGKGLEWISFISNAGTYTNYAESVKGRFTISRDNAKDSLYLEMNSLRGEDTAVYYCARQGFDTRGEDAFEIWGQGTMVTVSS
VL: EIVLTQSPATLSLSPGERATLSCRASQPLSGYLAWYQQKPGQAPRLLIYNASKRATGIPARFTGSGSGTDFTLTISSLESEDFAVYYCQQRSGWPSIFTFGPGTKVDIK
In the case of B3, the binding result in assay [2] was “binds”.
